Here are results for three substances from patent publication US20110059159A1.

Some results are limits rather than exact numbers.

The target in experiment [1] is Chemokine Receptor 5 (CCR5) with an engineered 1D4 epitope at the C-terminal tail (UniProt P51681). The experiment is described as follows: sandwich ELISA, 2D7 capture, HRP-1D4 detection; CCR5 solubilised in 1% (w/v) DDM. On the technique in general: An ELISA detects its analyte on a solid surface through an enzyme-linked reagent.
For experiment [2] the target is unchanged. The experiment is described as follows: sandwich ELISA, 2D7 capture, HRP-1D4 detection; CCR5 reconstituted into NABBs with POPC and zap1 (sample 7).
Experiment [3] addresses holotransducin (Gt) (bovine) (UniProt P04695). The experiment is described as follows: cell-based or functional assay.
Experiment [4] has as its target Chemokine Receptor 5 (CCR5) with an engineered 1D4 epitope at the C-terminal tail (UniProt P51681). Briefly: cell-based or functional assay.

holotransducin (Gt) (bovine), sequence (P04695 2-350, chain 1 of 3): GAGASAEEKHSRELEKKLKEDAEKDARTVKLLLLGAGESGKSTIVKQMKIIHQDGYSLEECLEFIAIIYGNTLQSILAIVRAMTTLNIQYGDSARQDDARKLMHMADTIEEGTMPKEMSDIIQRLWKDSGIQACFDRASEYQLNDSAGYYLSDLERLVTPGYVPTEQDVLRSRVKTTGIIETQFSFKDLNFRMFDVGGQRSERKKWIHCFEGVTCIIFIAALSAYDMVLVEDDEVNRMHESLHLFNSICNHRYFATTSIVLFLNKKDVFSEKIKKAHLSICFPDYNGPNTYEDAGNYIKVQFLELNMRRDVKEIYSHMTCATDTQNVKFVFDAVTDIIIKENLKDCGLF
holotransducin (Gt) (bovine), sequence (P62871 2-340, chain 2 of 3, further chain): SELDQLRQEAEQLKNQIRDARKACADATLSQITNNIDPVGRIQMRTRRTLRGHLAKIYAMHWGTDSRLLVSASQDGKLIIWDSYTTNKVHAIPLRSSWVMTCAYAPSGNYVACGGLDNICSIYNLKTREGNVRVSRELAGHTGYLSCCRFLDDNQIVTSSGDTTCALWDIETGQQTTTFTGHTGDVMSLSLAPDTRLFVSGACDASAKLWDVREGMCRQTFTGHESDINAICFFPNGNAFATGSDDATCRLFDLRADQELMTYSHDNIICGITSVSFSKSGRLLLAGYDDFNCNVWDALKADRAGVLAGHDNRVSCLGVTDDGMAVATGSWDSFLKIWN
holotransducin (Gt) (bovine), sequence (P02698 2-71, chain 3 of 3, further chain): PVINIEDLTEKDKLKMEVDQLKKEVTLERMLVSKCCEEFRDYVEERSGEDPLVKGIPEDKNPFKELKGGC

2D7 antibody: the ELISA signal relative to sample 1 (% of sample 1) turned out to be 65 in experiment [1] and 92 in experiment [2].
Take “rhodopsin incorporated in NABBs (from UniProt P02699 1-348) (receptor)”: in experiment [3], the apparent pseudo first-order rate constant (kobs) of transducin activation, 1 rho-NABB turned out to be 0.006 s⁻¹ and the apparent pseudo first-order rate constant (kobs) of transducin activation, 2rho-NABB was found to be 0.003 s⁻¹.
“RANTES (from UniProt P13501 24-91) (ligand)”: the enhancement of B-GTPγS binding to the G protein in experiment [4] was under 30%.
